Results reported in patent US20120192297A1 (TOKYO INSTITUTE OF TECHNOLOGY, published 2012).

Biological target: Cullin 4A (Cul4A), endogenous in 293T cells (human, UniProt Q13619 1-759, limits assumed)
Experiment: anti-FLAG immunoprecipitation from 293T cells, western blotting for DDB1 and Cul4A

Sequence of Cullin 4A (Cul4A), endogenous in 293T cells (Q13619 whole entry): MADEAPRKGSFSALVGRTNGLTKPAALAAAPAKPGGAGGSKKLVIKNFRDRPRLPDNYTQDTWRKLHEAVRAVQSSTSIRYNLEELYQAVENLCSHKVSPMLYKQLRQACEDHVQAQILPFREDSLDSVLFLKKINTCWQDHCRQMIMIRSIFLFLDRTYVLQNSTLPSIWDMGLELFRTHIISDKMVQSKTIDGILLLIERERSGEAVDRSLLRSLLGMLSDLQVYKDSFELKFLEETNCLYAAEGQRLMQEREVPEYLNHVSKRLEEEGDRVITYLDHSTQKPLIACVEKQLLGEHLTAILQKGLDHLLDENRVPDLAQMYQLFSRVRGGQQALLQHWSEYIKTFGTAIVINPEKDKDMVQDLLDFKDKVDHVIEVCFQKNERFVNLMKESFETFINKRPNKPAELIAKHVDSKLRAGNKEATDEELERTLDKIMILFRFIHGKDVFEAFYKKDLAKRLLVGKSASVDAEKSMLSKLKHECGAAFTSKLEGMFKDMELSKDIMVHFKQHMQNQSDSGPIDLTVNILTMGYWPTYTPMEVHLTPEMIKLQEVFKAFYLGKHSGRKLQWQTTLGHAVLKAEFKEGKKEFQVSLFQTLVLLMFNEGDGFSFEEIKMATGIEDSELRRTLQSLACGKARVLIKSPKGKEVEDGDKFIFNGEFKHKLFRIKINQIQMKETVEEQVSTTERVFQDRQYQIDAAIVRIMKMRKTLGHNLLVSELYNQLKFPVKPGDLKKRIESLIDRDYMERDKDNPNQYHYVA

B1: FH-CRBN ΔMid (deletion of amino acids 187 to 260) (other, not shown: small tags and cut ends)
chain: MAGEGDQQDAAHNMGNHLPLLPAESEEEDEMEVEDQDSKEAKKPNIINFDTSLPTSHTYLGADMEEFHGRTLHDDDSCQVIPVLPQVMMILIPGQTLPLQLFHPQEVSMVRNLIQKDRTFAVLAYSNVQEREAQFGTTAEIYAYREEQDFGIEIVKVKAIGRQRFKVLELRTQSDGIQQAKVQILPLREWDENLKDDSLPSNPIDFSYRVAACLPIDDVLRIQLLKIGSAIQRLRCELDIMNKCTSLCCKQCQETEITTKNEIFSLSLCGPMAAYVNPHGYVHETLTVYKACNLNLIGRPSTEHSWFPGYAWTVAQCKICASHIGWKFTATKKDMSPQKFWGLTRSALLPTIPDTEDEISPDKVILCL
binding result: no binding
